Experimental data reported in paper PMC12139779 (bioRxiv, 2025).

Target: T1, Human KLHDC2 (kelch domain, amino acids 1–362) (human, UniProt Q9Y2U9 1-362, biotin (biotinylated with BirA enzyme))
T1 sequence: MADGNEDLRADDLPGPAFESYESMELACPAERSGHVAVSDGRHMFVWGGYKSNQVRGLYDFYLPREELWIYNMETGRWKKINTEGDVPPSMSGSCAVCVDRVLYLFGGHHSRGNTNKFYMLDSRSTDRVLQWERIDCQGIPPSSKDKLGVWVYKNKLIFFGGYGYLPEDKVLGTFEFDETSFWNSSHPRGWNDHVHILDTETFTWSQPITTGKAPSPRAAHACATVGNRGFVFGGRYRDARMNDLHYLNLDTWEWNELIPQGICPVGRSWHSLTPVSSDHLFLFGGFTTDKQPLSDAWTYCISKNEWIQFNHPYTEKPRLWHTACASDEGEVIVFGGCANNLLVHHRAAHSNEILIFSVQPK
Test: fluorescence polarisation

B1: SelK 8-mer (SPPPMAGG) (peptide)
peptide: SPPPMAGG
B1: binds.
